6 molecules from paper PMC3988316 (Cell, 2013) can be followed below.

No end group written: not given here. cellulose‑PEG membrane = cellulose-PEG membrane solid support to which peptides are linked at the C-terminus as "dots"

This assay addresses N-terminally flag-tagged full-length S. cerevisiae Ubr1 (S. cerevisiae, UniProt P19812 1-1950). Put plainly: peptide or protein array.

N-terminally flag-tagged full-length S. cerevisiae Ubr1, sequence (P19812 whole entry): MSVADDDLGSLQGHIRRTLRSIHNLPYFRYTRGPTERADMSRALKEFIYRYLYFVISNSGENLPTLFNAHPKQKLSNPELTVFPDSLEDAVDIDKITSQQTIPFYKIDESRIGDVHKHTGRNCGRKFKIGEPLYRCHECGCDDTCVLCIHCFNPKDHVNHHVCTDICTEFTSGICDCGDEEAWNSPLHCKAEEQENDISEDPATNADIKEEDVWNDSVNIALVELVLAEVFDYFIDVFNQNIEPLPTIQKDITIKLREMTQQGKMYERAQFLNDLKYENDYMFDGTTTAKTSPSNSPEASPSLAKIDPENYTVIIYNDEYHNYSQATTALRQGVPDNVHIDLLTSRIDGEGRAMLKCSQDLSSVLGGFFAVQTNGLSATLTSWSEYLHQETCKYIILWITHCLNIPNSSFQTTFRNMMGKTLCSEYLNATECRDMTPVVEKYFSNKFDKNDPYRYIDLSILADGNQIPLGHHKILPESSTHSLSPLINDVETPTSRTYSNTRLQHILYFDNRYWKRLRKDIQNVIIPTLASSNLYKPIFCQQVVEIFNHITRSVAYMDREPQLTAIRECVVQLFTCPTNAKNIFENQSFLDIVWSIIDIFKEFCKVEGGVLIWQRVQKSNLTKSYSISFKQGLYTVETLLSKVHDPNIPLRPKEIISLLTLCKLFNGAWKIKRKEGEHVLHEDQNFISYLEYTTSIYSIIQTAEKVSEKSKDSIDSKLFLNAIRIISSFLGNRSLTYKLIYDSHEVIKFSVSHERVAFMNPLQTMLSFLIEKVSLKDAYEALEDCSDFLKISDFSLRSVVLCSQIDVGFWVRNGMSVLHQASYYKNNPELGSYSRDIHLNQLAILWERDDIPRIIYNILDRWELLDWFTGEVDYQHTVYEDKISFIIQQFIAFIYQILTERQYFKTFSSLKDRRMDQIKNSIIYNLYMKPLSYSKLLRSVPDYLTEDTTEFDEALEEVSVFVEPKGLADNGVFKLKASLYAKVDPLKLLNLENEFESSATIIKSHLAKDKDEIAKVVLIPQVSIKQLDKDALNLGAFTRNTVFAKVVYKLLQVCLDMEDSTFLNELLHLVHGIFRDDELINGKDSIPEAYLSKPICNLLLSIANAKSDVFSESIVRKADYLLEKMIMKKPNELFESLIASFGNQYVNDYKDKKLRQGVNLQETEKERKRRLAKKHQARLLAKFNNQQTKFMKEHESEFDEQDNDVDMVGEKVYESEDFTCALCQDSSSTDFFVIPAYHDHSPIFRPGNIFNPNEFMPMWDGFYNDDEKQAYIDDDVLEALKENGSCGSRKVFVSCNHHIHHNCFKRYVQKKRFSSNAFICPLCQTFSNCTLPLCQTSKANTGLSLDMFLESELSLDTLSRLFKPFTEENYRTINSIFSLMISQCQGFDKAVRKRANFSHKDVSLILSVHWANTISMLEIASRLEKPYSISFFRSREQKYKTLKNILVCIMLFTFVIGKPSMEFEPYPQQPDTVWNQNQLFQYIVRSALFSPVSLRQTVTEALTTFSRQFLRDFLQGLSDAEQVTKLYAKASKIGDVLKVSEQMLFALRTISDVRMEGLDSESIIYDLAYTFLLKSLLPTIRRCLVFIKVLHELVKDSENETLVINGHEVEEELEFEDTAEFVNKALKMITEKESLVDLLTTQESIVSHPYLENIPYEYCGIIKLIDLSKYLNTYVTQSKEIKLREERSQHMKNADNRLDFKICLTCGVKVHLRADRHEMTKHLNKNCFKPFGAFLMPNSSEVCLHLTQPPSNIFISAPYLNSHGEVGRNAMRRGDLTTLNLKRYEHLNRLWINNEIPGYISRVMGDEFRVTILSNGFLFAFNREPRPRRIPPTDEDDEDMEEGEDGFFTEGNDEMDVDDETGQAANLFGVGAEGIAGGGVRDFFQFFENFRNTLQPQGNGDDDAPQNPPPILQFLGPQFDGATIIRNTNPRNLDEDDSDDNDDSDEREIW

B1: Met-Trp-e^K(3–10) peptide (peptide)
peptide: MWGSGAWLLP-{cellulose‑PEG membrane}
As for B1, the binding result is reported as “binds”.

B2: Met-Phe-e^K(3–10) peptide (peptide)
peptide: MFGSGAWLLP-{cellulose‑PEG membrane}
B2: the binding result is recorded as “binds”.

B3: Met-Ala-e^K(3–10) peptide (peptide)
peptide: MAGSGAWLLP-{cellulose‑PEG membrane}
B3: the binding result is given as “binds”.

B4: Met-Val-e^K(3–10) peptide (peptide)
peptide: MVGSGAWLLP-{cellulose‑PEG membrane}
In the case of B4, the binding result was “binds”.

B5: Met-Ile-e^K(3–10) peptide (peptide)
peptide: MIGSGAWLLP-{cellulose‑PEG membrane}
As to B5, the binding result is “binds”.

B6: Met-Tyr-e^K(3–10) peptide (peptide)
peptide: MYGSGAWLLP-{cellulose‑PEG membrane}
Regarding B6, the binding result was “binds”.
